Data reported in the supplement of paper PMC9112550, “Optimization of the antimicrobial peptide Bac7 by deep mutational scanning” (BMC Biology, 2022).

Test system: Escherichia coli TOP10
Test: shrunken log2 fold change of peptide-encoding DNA abundance (4.5 h post-induction vs induction); higher = less antimicrobial activity (less host growth inhibition)
Conditions: time post-induction: 4.5 h; library: site-saturation at positions 5, 18, 19, 20
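Further: peptides expressed intracellularly from a pBAD plasmid library in pooled LB shake-flask culture, induced with 0.3% L-arabinose, DNA abundance read by NGS, three biological replicates, DESeq2 with apeglm shrinkage.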

Sequence	shrunken log2 fold change
RRIRGRPPRLPRPRPRPMRVPRP	1.65
RRIRGRPPRLPRPRPRPYFKPRP	-0.366
RRIRCRPPRLPRPRPRPDESPRP	0.153
RRIRTRPPRLPRPRPRPGHAPRP	0.161
RRIRERPPRLPRPRPRPINNPRP	-0.944
RRIRMRPPRLPRPRPRPAYGPRP	-0.00861
RRIRTRPPRLPRPRPRPDPDPRP	-0.0398
RRIRFRPPRLPRPRPRPRDEPRP	0.278
RRIRSRPPRLPRPRPRPAGFPRP	0.262
RRIRSRPPRLPRPRPRPLMIPRP	-0.764
RRIRCRPPRLPRPRPRPHFNPRP	-0.589
RRIRHRPPRLPRPRPRPWHTPRP	-0.566
RRIRDRPPRLPRPRPRPYNVPRP	-0.0265
RRIRFRPPRLPRPRPRPFWIPRP	-0.357
RRIRRRPPRLPRPRPRPEQTPRP	-0.01
RRIRFRPPRLPRPRPRPECAPRP	0.724
RRIRDRPPRLPRPRPRPKMNPRP	-0.366
RRIRIRPPRLPRPRPRPTVPPRP	0.185
RRIRNRPPRLPRPRPRPHGPPRP	0.115
RRIRVRPPRLPRPRPRPFKTPRP	0.146
RRIRERPPRLPRPRPRPWKHPRP	-0.176
RRIRSRPPRLPRPRPRPYDPPRP	-1
RRIRHRPPRLPRPRPRPCRDPRP	0.0154
RRIRRRPPRLPRPRPRPFWVPRP	0.236
RRIRDRPPRLPRPRPRPNPKPRP	0.165

Sequence	shrunken log2 fold change
RRIRDRPPRLPRPRPRPLIMPRP	-0.0616
RRIRCRPPRLPRPRPRPLCVPRP	-0.481
RRIRDRPPRLPRPRPRPFAVPRP	-0.0136
RRIRMRPPRLPRPRPRPWIRPRP	-0.167
RRIRMRPPRLPRPRPRPGRTPRP	0.894
RRIRPRPPRLPRPRPRPVLMPRP	-0.161
RRIRYRPPRLPRPRPRPKKHPRP	-0.646
RRIRSRPPRLPRPRPRPLLKPRP	0.253
RRIRNRPPRLPRPRPRPIEWPRP	-0.00176
RRIRVRPPRLPRPRPRPCYCPRP	-0.32
RRIRFRPPRLPRPRPRPYFKPRP	-0.848
RRIRSRPPRLPRPRPRPITEPRP	0.0453
RRIRMRPPRLPRPRPRPIAVPRP	-0.015
RRIRSRPPRLPRPRPRPVIFPRP	-0.335
RRIRSRPPRLPRPRPRPDMLPRP	0.304
RRIRQRPPRLPRPRPRPWMVPRP	-0.0803
RRIRCRPPRLPRPRPRPFPCPRP	-0.367
RRIRNRPPRLPRPRPRPEIVPRP	0.106
RRIRSRPPRLPRPRPRPETMPRP	0.205
RRIRMRPPRLPRPRPRPWADPRP	-0.108
RRIRLRPPRLPRPRPRPYRRPRP	0.0203
RRIRKRPPRLPRPRPRPPKMPRP	0.383
RRIRTRPPRLPRPRPRPTKQPRP	-0.0507
RRIRGRPPRLPRPRPRPQAMPRP	-0.0164
RRIRRRPPRLPRPRPRPPKLPRP	0.0716

Sequence	shrunken log2 fold change
RRIRYRPPRLPRPRPRPHRFPRP	0.0207
RRIRQRPPRLPRPRPRPQCEPRP	-0.234
RRIRVRPPRLPRPRPRPFRGPRP	0.0214
RRIRNRPPRLPRPRPRPKVYPRP	-0.406
RRIRVRPPRLPRPRPRPASNPRP	-0.0943
RRIRPRPPRLPRPRPRPTRSPRP	0.365
RRIRDRPPRLPRPRPRPHNSPRP	0.0166
RRIRERPPRLPRPRPRPNGQPRP	0.0342
RRIRQRPPRLPRPRPRPAYGPRP	-0.341
RRIRTRPPRLPRPRPRPGWHPRP	-0.014
RRIRGRPPRLPRPRPRPSEDPRP	0.71
RRIRGRPPRLPRPRPRPFPTPRP	0.63
RRIRERPPRLPRPRPRPHIDPRP	-0.34
RRIRERPPRLPRPRPRPLPMPRP	0.187
RRIRTRPPRLPRPRPRPREFPRP	0.33
RRIRWRPPRLPRPRPRPRLRPRP	0.461
RRIRNRPPRLPRPRPRPTDWPRP	0.328
RRIRVRPPRLPRPRPRPMFYPRP	-0.725
RRIRTRPPRLPRPRPRPWAVPRP	-0.0894
RRIRDRPPRLPRPRPRPCYCPRP	-0.148
RRIRERPPRLPRPRPRPATHPRP	-0.264
RRIRFRPPRLPRPRPRPTYAPRP	-0.203
RRIRLRPPRLPRPRPRPVLPPRP	-0.0546
RRIRVRPPRLPRPRPRPPDVPRP	-0.286
RRIRHRPPRLPRPRPRPTYCPRP	-0.129

Sequence	shrunken log2 fold change
RRIRGRPPRLPRPRPRPYLPPRP	-0.204
RRIRERPPRLPRPRPRPCKCPRP	-0.01
RRIRRRPPRLPRPRPRPKCTPRP	-0.373
RRIRLRPPRLPRPRPRPPDRPRP	0.467
RRIRSRPPRLPRPRPRPYLRPRP	-0.00709
RRIRKRPPRLPRPRPRPDSIPRP	-0.0839
RRIRMRPPRLPRPRPRPTNWPRP	0.474
RRIRCRPPRLPRPRPRPYSIPRP	-0.608
RRIRRRPPRLPRPRPRPCTSPRP	0.0211
RRIRGRPPRLPRPRPRPQCQPRP	0.316
RRIRNRPPRLPRPRPRPANHPRP	-0.208
RRIRHRPPRLPRPRPRPKTAPRP	0.0497
RRIRIRPPRLPRPRPRPKSGPRP	-0.128
RRIRVRPPRLPRPRPRPYREPRP	-0.3
RRIRGRPPRLPRPRPRPFIGPRP	-0.258
RRIRNRPPRLPRPRPRPAEDPRP	0.0275
RRIRKRPPRLPRPRPRPVTAPRP	0.147
RRIRSRPPRLPRPRPRPDPLPRP	0.0174
RRIRHRPPRLPRPRPRPERNPRP	0.036
RRIRGRPPRLPRPRPRPCASPRP	0.557
RRIRFRPPRLPRPRPRPVPNPRP	-0.0743
RRIRNRPPRLPRPRPRPNVMPRP	-0.16
RRIRARPPRLPRPRPRPVCQPRP	0.58
RRIRKRPPRLPRPRPRPQPRPRP	0.752
RRIRHRPPRLPRPRPRPFIFPRP	-0.656

Sequence	shrunken log2 fold change
RRIRWRPPRLPRPRPRPWFNPRP	-0.248
RRIRARPPRLPRPRPRPGMDPRP	0.543
RRIRFRPPRLPRPRPRPFFCPRP	-0.206
RRIRGRPPRLPRPRPRPGLRPRP	0.875
RRIRKRPPRLPRPRPRPHGPPRP	0.0129
RRIRQRPPRLPRPRPRPWQPPRP	-0.00999
RRIRKRPPRLPRPRPRPLDRPRP	-0.0461
RRIRSRPPRLPRPRPRPPTEPRP	0.194
RRIRPRPPRLPRPRPRPESKPRP	0.224
RRIRMRPPRLPRPRPRPFEAPRP	0.655
RRIRGRPPRLPRPRPRPNNKPRP	0.0225
RRIRGRPPRLPRPRPRPLPFPRP	-0.0338
RRIRHRPPRLPRPRPRPASEPRP	-0.131
RRIRDRPPRLPRPRPRPPCCPRP	-0.124
RRIRYRPPRLPRPRPRPVMIPRP	-0.596
RRIRDRPPRLPRPRPRPDISPRP	0.0588
RRIRRRPPRLPRPRPRPDRGPRP	-0.216
RRIRFRPPRLPRPRPRPNSVPRP	-0.0912
RRIRGRPPRLPRPRPRPDYQPRP	-0.418
RRIRNRPPRLPRPRPRPPSPPRP	0.538
RRIRCRPPRLPRPRPRPMKPPRP	0.0236
RRIRVRPPRLPRPRPRPPYNPRP	-0.1
RRIRHRPPRLPRPRPRPLMSPRP	-0.196
RRIRYRPPRLPRPRPRPGMMPRP	-0.426
RRIRCRPPRLPRPRPRPYGSPRP	-0.517

Sequence	shrunken log2 fold change
RRIRLRPPRLPRPRPRPRHYPRP	-0.127
RRIRARPPRLPRPRPRPAWIPRP	0.116
RRIRWRPPRLPRPRPRPGMQPRP	0.775
RRIRGRPPRLPRPRPRPCRGPRP	-0.0404
RRIRQRPPRLPRPRPRPEHKPRP	-0.00178
RRIRNRPPRLPRPRPRPQIWPRP	0.0573
RRIRIRPPRLPRPRPRPKIPPRP	-0.212
RRIRIRPPRLPRPRPRPIWCPRP	-0.00146
RRIRTRPPRLPRPRPRPEGVPRP	0.122
RRIRHRPPRLPRPRPRPAMYPRP	-0.0134
RRIRLRPPRLPRPRPRPYPVPRP	-0.025
RRIRCRPPRLPRPRPRPAPPPRP	0.743
RRIRWRPPRLPRPRPRPSAKPRP	0.833
RRIRERPPRLPRPRPRPGTHPRP	-0.394
RRIRFRPPRLPRPRPRPQKIPRP	-0.299
RRIRTRPPRLPRPRPRPTVDPRP	-0.126
RRIRQRPPRLPRPRPRPHCHPRP	-0.164
RRIRARPPRLPRPRPRPLQEPRP	0.604
RRIRCRPPRLPRPRPRPLDWPRP	0.285
RRIRCRPPRLPRPRPRPAVQPRP	-0.0829
RRIRQRPPRLPRPRPRPGDRPRP	0.132
RRIRCRPPRLPRPRPRPCCIPRP	-0.166
RRIRERPPRLPRPRPRPGSGPRP	0.101
RRIRYRPPRLPRPRPRPKNKPRP	-0.444
RRIRLRPPRLPRPRPRPYVFPRP	-0.515
